The results in this text go back to publication doi:10.1101/2021.04.20.440599, “Structures of a deAMPylation complex rationalise the switch between antagonistic catalytic activities of FICD (14/96/109)” (bioRxiv, 2021).

Numbering of substitutions follows the chain as printed. Numbers in names are those of the source.

In series [1] the target is T1, lid-truncated BiP^T229A-V461F-AMP (residues 27-549) (Chinese hamster, UniProt G3I8R9 27-549, T229A | V461F, AMP covalently attached to Thr518 (Thr518-AMP)).
T1 construct: BiP, Chinese hamster, residues 27-549 (all of the SBD-alpha lid removed but helix A); in the expressed range hamster and human BiP are identical; also called lid-truncated BiP-AMP; AMPylated BiP; source: E. coli, purified (Ni-NTA, on-bead Ulp1 cleavage, anion exchange, gel filtration); AMPylated in vitro with GST-TEV-FICD^E234G; not shown: His6-Smt3, N-terminal, cleaved
Nature of the series: crystal structure; heterodimer of FICD^L258D-H363A and lid-truncated BiP-AMP copurified by SEC in TNKMT buffer (mixed 1.5:1 with 250 uM ATP, 50 mM KCl, 2 mM MgCl2); sitting drop at 25 °C; state 1: 0.1 M MES pH 6.5, 10% PEG 4000, 0.2 M NaCl; state 2: 0.1 M Tris pH 8.0, 25% PEG 400. The settings on record: both partners purified.

Series [2] addresses T2, biotinylated-AviTag-haBiP^T229A-V461F, unmodified, ATP-bound (Chinese hamster, UniProt G3I8R9 27-635, T229A | V461F, biotin on the N-terminal Avi-tag).
T2 construct: GS linker between the avi-tag and BiP; BiP, Chinese hamster, residues 27-635; Immobilised BLI ligand; The in vitro AMPylation assay used untagged BiP^T229A-V461F (UK2521); also called BiP:ATP; unmodified BiP; source: E. coli, purified; biotinylated in vitro, made apo, then loaded with 2 mM ATP on the sensor; not shown: His6-Smt3, N-terminal, cleaved; Avi-tag (biotinylated), N-terminal, kept
Nature of the series: BLI; biotinylated Avi-tagged BiP (AMPylated or unmodified) on streptavidin biosensors, activated in 2 mM ATP; apo FICD variants (all H363A) as analytes at 50 nM unless otherwise specified; HKM with 0.05% Triton X-100, 30 °C; second dissociation step with 2 mM ATP. The conditions noted are these: both partners purified.

The target of series [3] is T3, AMPylated biotinylated-AviTag-haBiP^T229A-V461F (Chinese hamster, UniProt G3I8R9 27-635, T229A | V461F, AMP covalently attached to Thr518; biotin on the N-terminal Avi-tag).
T3 construct: GS linker between the avi-tag and BiP; BiP, Chinese hamster, residues 27-635; Immobilised BLI ligand; also called BiP-AMP; immobilised AMPylated BiP; source: E. coli, purified; AMPylated in vitro, biotinylated in vitro, made apo, then loaded with 2 mM ATP on the sensor; not shown: His6-Smt3, N-terminal, cleaved; Avi-tag (biotinylated), N-terminal, kept
Described as above. The conditions noted are these: both partners purified.

Series [4] concerns the molecule itself. Briefly: contrast variation small angle neutron scattering (SANS); complexes of partially deuterated and non-deuterated dimeric FICD^H363A and full-length BiP-AMP copurified by SEC (1.25:1 BiP-AMP:FICD, 250 uM ATP) into TNKMT(0.2) buffers of varying D2O content; 4.3-5.5 mg/ml, 12 °C.
The target in series [5] is T4, BiP^T229A-V461F-AMP (residues 27-635) (Chinese hamster, UniProt G3I8R9 27-635, T229A | V461F, AMP covalently attached to Thr518).
T4 construct: BiP, Chinese hamster, residues 27-635 ('full-length': complete structured region; lacks the acidic N-terminal region and the C-terminal region with KDEL); The deAMPylation assays used BiP^T229A-V461F (UK2521) AMPylated in vitro, with a trace of AMP(FAM)-labelled probe; also called full-length BiP-AMP; full-length AMPylated BiP; source: E. coli, purified; AMPylated in vitro with …
The series is described as above. The conditions noted are these: both partners purified.

T3 sequence (G3I8R9 other isoform, or with tags, fused parts or gaps T229A | V461F | T229A | V461F | T229A V461F T229A V461F): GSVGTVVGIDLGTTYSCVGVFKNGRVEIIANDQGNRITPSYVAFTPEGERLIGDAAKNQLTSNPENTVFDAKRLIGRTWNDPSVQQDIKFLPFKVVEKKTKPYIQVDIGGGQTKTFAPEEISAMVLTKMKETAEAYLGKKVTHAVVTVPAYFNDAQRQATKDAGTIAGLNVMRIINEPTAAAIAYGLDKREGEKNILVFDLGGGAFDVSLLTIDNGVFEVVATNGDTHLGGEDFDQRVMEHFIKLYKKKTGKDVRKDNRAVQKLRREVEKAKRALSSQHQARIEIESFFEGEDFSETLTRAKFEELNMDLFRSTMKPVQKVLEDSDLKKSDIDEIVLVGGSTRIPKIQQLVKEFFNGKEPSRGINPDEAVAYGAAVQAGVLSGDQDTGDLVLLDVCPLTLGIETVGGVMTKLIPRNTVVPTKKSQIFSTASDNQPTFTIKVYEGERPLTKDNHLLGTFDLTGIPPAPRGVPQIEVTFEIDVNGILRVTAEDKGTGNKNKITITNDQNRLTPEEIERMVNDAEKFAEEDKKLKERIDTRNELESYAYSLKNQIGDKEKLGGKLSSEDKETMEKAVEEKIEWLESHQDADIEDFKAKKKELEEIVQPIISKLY
T2 sequence (G3I8R9 other isoform, or with tags, fused parts or gaps T229A | V461F | T229A | V461F | T229A V461F T229A V461F): as above
T1 sequence (G3I8R9 27-549 T229A/V461F): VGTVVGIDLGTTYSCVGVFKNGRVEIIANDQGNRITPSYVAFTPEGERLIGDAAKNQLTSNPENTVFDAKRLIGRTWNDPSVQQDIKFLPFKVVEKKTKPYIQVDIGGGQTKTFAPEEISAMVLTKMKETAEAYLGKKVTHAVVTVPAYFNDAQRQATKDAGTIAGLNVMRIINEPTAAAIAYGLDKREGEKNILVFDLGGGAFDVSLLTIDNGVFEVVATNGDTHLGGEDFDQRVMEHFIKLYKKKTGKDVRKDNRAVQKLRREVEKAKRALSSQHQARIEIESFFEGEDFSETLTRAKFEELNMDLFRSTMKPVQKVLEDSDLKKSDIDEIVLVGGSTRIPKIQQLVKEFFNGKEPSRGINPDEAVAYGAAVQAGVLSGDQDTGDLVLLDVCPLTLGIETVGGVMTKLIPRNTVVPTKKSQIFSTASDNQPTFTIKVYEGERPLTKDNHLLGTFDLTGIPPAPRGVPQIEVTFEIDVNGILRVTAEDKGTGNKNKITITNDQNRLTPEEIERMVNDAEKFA
T4 sequence (G3I8R9 27-635 T229A/V461F): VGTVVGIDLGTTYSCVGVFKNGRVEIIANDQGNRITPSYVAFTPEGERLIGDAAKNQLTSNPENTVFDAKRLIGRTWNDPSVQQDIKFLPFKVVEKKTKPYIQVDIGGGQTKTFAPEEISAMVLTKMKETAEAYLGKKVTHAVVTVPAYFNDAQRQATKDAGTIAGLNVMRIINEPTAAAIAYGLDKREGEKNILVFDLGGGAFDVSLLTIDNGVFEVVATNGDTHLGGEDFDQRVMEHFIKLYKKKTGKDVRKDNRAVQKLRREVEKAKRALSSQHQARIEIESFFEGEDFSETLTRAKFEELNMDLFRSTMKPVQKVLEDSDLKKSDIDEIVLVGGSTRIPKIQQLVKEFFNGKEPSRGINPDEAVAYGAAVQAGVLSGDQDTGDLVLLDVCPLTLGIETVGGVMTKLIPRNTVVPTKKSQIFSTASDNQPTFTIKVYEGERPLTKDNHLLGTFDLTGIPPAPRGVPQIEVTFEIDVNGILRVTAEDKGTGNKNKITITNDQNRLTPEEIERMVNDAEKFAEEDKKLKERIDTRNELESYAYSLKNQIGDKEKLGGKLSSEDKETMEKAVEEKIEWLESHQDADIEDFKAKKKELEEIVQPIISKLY

B1: FICD^L258D-H363A (residues 104-445) (enzyme, human, UniProt Q9BVA6 104-445, looked up)
chain: LEARAALNQALEMKRQGKREKAQKLFMHALKMDPDFVDALTEFGIFSEEDKDIIQADYLYTRALTISPYHEKALVNRDRTLPLVEEIDQRYFSIIDSKVKKVMSIPKGNSALRRVMEETYYHHIYHTVAIEGNTLTLSEIRHILETRYAVPGKSDEEQNEVIGMHAAMKYINTTLVSRIGSVTISDVLEIHRRVLGYVDPVEAGRFRTTQVLVGHHIPPHPQDVEKQMQEFVQWLNSEEAMNLHPVEFAALAHYKLVYIAPFIDGNGRTSRLLMNLILMQAGYPPITIRKEQRSDYYHVLEAANEGDVRPFIRFIAKCTETTLDTLLFATTEYSVALPEAQP
notes: FICD, human, residues 104-445 (only the predicted structured regions were expressed); Used in the crystal structures and as BLI analyte; also called monomeric FICD^L258D-H363A; monomeric FICD; source: E. coli (T7 Express lysY/Iq or M15), purified (Ni-NTA, on-bead Ulp1 cleavage, anion exchange, gel filtration); not shown: His6-Smt3, N-terminal, cleaved
B1: the binding result in series [1], in series [2] and in series [3] was “binds” each time.

B2: TPR domain oxidised monomeric FICD^D160C-T183C-L258D-H363A-C421S (enzyme, human, UniProt Q9BVA6 104-445, looked up)
chain: B1 chain with D57C, T80C, C318S
modifications: intramolecular disulphide bond between Cys160 and Cys183 (TPRox)
notes: FICD, human, residues 104-445, FICD^D160C-T183C-C421S derivative of FICD^L258D-H363A; also called TPRox (monomeric); FICD(TPRox); source: E. coli, purified; oxidised with CuSO4 and 1,10-phenanthroline, further anion exchange and gel filtration; not shown: His6-Smt3, N-terminal, cleaved
Take B2: the binding result in series [2] and in series [3] was “binds” throughout.

B3: FICD^H363A (residues 104-445) (enzyme, human, UniProt Q9BVA6 104-445, looked up)
chain: B1 chain with D155L
notes: FICD, human, residues 104-445; Used non-deuterated and partially deuterated in SANS, and as BLI analyte; also called dimeric FICD^H363A; dimeric FICD; source: E. coli, purified (Ni-NTA, on-bead Ulp1 cleavage, anion exchange, gel filtration); matchout-deuterated form from E. coli BL21 Star (DE3) in 85% deuterated medium, purified; not shown: His6-Smt3, N-terminal, cleaved
Regarding B3, the binding result in series [4] was “binds”. The “stoichiometry N” value in series [5] is 1 FICD per BiP-AMP (2:2).

B4: TPR domain oxidised dimeric FICD^D160C-T183C-H363A-C421S (enzyme, human, UniProt Q9BVA6 104-445, looked up)
chain: B1 chain with D57C, T80C, D155L, C318S
modifications: intramolecular disulphide bond between Cys160 and Cys183 (TPRox)
notes: FICD, human, residues 104-445, FICD^D160C-T183C-C421S derivative of FICD^H363A; also called TPRox (dimeric); FICD(TPRox); source: E. coli, purified; oxidised with CuSO4 and 1,10-phenanthroline, further anion exchange and gel filtration; not shown: His6-Smt3, N-terminal, cleaved
Consider B4, for which, in series [3], the binding result is “binds”.

In general, stoichiometry N refers to the number of molecules, sites or subunits per partner or assembly.
